From the supplement of paper PMC12042874
± gives the uncertainty stated by the source.

Assay: amyloid nucleation score (Sup35N fusion, yeast selection) (log enrichment); library NNK2; higher = more nucleation; inactive = no reads after selection
In short: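 The nucleation score is the log enrichment of output over input reads, calculated with DiMSum and centred on the mode score of non-aggregating sequences. Sequences with under 100 input reads were excluded. Reads came from Illumina sequencing of plasmid inserts from psi-negative yeast expressing Sup35N fused to peptides of 20 random codons, induced 24 hours with 100 μM copper sulfate and grown 7 days at 30°C without adenine and uracil.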

Substance | amyloid nucleation score
VNTPDISGRHVSYFDFFVFY | 6.337 ± 0.038
VNWIKGKGRLPPFHGIDCWW | -0.139 ± 0.63
VPELVSYFHLP | 0.863 ± 0.43
VPGLESMR | 0.57 ± 0.81
VPSFRYCTSYQTATSLR | 0.17 ± 0.33
VQILSHFSADCKDDSVDQES | -1.06 ± 1.1
VQRQIDNSKLWYNYTICIPA | 0.679 ± 0.62
VRALRQPAT | 0.567 ± 0.27
VRCNFISVWSCDVESIVVES | 5.096 ± 0.046
VRDIVYRYSGGRRS | inactive
VRFTAWICVYRYKEGWWRSL | -0.417 ± 0.24
VRGYRVGVWLRTGRVLVYRG | -0.282 ± 0.76
VRIKCYVKPYFFQKFLHMIG | -1.34 ± 0.53
VRKGCLTRACWRGCECMQGG | 2.03 ± 0.12
VRLVMI | 0.019 ± 1.1
VRMSQKDGKTPFQMFGHLEM | 0.039 ± 0.21
VRSKVFALVGAFSMIKFRGC | inactive
VRSRKCLSVRLFSSVMGVSD | -0.88 ± 0.54
VRSSPTRVRERRSIILVLNC | 0.594 ± 0.81
VRTLGGL | -0.653 ± 0.33
VRTWCAFYTVIRGWYRLLGS | 0.231 ± 0.5
VRVGCTWS | 0.618 ± 0.34
VSACQSESVSNVFDR | -0.152 ± 0.56
VSCCYRFSASNQIIVTPFSS | 8.119 ± 0.026
VSCNSYMGVLMDDGRVETLE | 0.486 ± 0.2

Substance | amyloid nucleation score
VSEQSMQCGVKFRHGTPSMV | 0.607 ± 0.38
VSFKDTTGECGDLSYRKNAR | 0.646 ± 0.38
VSGCRGVMLI | -0.816 ± 0.54
VSLYLYPVGMGMSE | 1 ± 0.68
VSNFSRYHLSCYSMVRLLLD | -0.532 ± 0.36
VSNKDVLSQDMAKLIWW | 0.81 ± 0.22
VSNTEMQTVHVPAGLLPSGF | -0.27 ± 1.1
VSPLNGSVYGGDEVFGINLG | -1.95 ± 0.75
VSQGRFKYERVVCVNFGKEL | 0.201 ± 0.74
VSSFVKLIWQVALINWVRMG | inactive
VSTRILSCSNEFCYIIGAMV | 2.59 ± 0.15
VSVDSVDAIFRK | 0.489 ± 0.64
VSYGVWSCIRGL | -0.324 ± 1.1
VTALYGSSICMSRSDY | 0.119 ± 0.47
VTEHRNHIKTWTTQSSLCDW | 0.124 ± 0.37
VTFNALLGFLASICVITSRI | 3.16 ± 0.072
VTNHV | 0.895 ± 0.33
VTRDARRDSQGDKVV | 1.02 ± 0.17
VTRKVLGYCRVW | 0.472 ± 0.8
VTRRLYSRFIGTKEISAVIC | 0.119 ± 0.43
VTVNFSANARLCRLGLLNVC | -0.222 ± 0.34
VVERKLVMHYGMEMYTVHDG | 0.971 ± 0.51
VVEVCC | -0.368 ± 0.27
VVGSWYKSGRKRLQRDDALS | -1.03 ± 0.55
VVLLAKYQVCIICIKEDLSN | 3.78 ± 0.12

Substance | amyloid nucleation score
VVLYCFISLLKFIEIGEGHP | -1.24 ± 1.1
VVNSVVPKRSRLCHFYFTGM | -1.02 ± 0.63
VVRCRWQDTRTVSQGWVIP | 0.97 ± 0.33
VVRSHTLQNSALRCWSDG | 0.935 ± 0.39
VVSHLGWTWGFKSMLGIRRS | -0.759 ± 0.29
VVSKLFRDFYWRMLKSNMGW | 0.448 ± 0.62
VVSWCVEVNPRERAKVDMCR | 4.25 ± 0.047
VVSWKCIEYYVVE | -0.871 ± 0.78
VVTGSMDSCGQPKVSSSSAS | 0.294 ± 0.38
VVVRNGLLNISFKVNRCGFG | 8.662 ± 0.055
VVWGERVHGIWLMCYCNWTG | 5.51 ± 0.091
VWCCHLNINVASSLTVSCTR | 0.544 ± 0.21
VWDAEFSGPLRHEIMSGFVW | 0.08 ± 0.3
VWLNSHFLMGRI | -1.46 ± 0.54
VWLRYYMCFNFVWSIVGVRI | 3.81 ± 0.052
VWPGLIGHRSFFINLHVGKG | 7.38 ± 0.082
VWRIRTAMGTG | 0.766 ± 0.19
VWRSLMCFSWNPTMHRLISV | 0.363 ± 0.53
VWSRRYTLVGFTSVVPSNDN | 0.3 ± 0.37
VWWSLSYFQAVRGQLFHQIV | -0.139 ± 0.42
VWYINSTNYLCPLISRVQVE | -0.997 ± 0.36
VYGSCSVMLGNWCSSVFKVL | 0.174 ± 1
VYISSSFDFWMFVNFIDDTL | -0.511 ± 0.43
VYKQVRNKVCSYLSLTERRW | 0.654 ± 0.57
VYLFDTYGCSEQFHSVVGYK | -0.916 ± 0.76

Substance | amyloid nucleation score
VYNSGWQVGWAKGLWSSLYN | -0.409 ± 0.34
VYQIRKV | -0.523 ± 0.33
VYRDDCFHFLDTSQTGACLT | 0.797 ± 0.4
VYRYFNLQVISFWMMARHTM | -1.32 ± 1.1
VYSHILDYFACISYAITLVD | 2.91 ± 0.13
VYSPAIFTNVFSYVSCEEER | 6.56 ± 0.072
VYTTDLPFIYVLSVFMFIHG | -0.447 ± 0.27
VYYTCYDE | 0.024 ± 0.4
WALSHYVCNTYYSNHSVSNT | 5.57 ± 0.052
WALTHVSLYRFGER | 4.32 ± 0.093
WARFEKV | inactive
WCGFHGKATNHFMWIV | 1.45 ± 0.27
WCGREVNLHALLCKIDRLTI | 0.598 ± 0.49
WCHVSLMYRGYLKSGARDGN | 0.199 ± 0.43
WCLGSMVTHYYLATNSSGYC | 3.64 ± 0.11
WCNTRRCNSPPLVVC | 1.86 ± 0.12
WCPLWITCMCLCSGLST | 8.742 ± 0.036
WDDFTYGYRLRIYFLIFQRG | -1.15 ± 1.1
WDIFICLVL | -0.063 ± 0.74
WDLLLCNTKFFEIRIKADTL | 3.94 ± 0.094
WELVSGVYVTGCTFSSEDVQ | -0.785 ± 0.29
WERVKYLLDYL | inactive
WFMNSNVLHYM | 0.27 ± 0.64
WFPRSNAYLCMCFFVLREYQ | 0.428 ± 0.66
WGHFAMVRA | 0.426 ± 0.8

Substance | amyloid nucleation score
WGHLFRSPSRSSRFYRVLPA | -0.159 ± 1.1
WGIWFKPALFRNLYTIFAWL | inactive
WGMWCMFHCRVAS | -0.196 ± 1
WHDRDTITGSITIKKMH | -0.702 ± 0.32
WHLVGRRSID | -0.336 ± 0.76
WHSVKMVNMFVGSKVISRSF | 5.42 ± 0.07
WIREY | -0.43 ± 0.32
WIVSF | 0.131 ± 0.29
WKNYRNMEWCVSSVLSFFYV | 5.31 ± 0.077
WKQLSSWIAIDSLRARKTLS | -0.405 ± 0.42
WKSCWLGIWSEGIYILGEET | -0.284 ± 1.1
WKTKISSSSCRSGNRSEPNA | 0.281 ± 0.29
WLCDWLASIWCMFGLSGCSR | 0.232 ± 0.35
WLDLTYFFSRLGVDVISLQ | -0.468 ± 0.48
WLGYFK | inactive
WLICQSIRLLAKNFLLSDRV | 0.019 ± 1.1
WLIGRNAKSWAWVFLKRSTG | 0.392 ± 0.25
WLKVS | -1.48 ± 0.55
WLLLYTCHLMISQISFHRKS | -0.874 ± 0.61
WLRNWGYAFGPRQNYNCCRV | -0.569 ± 0.49
WLSTKWIFFISNVKFFLYLR | -0.06 ± 1
WLTKLDRTSLEGSEYFKKML | 0.307 ± 0.34
WLTLGVYELRWMRSPNTGCL | 1.8 ± 0.23
WLWSSLISSMVVYSQ | 2.53 ± 0.072
WLYRQFDLSLESYNWMPGIE | 3.95 ± 0.12

Substance | amyloid nucleation score
WMIGRCD | 0.319 ± 0.61
WMLRGRYFGTE | -1.47 ± 0.44
WMWPPMPLGKVAQRGLAVVC | 1.28 ± 0.22
WNMYNRIWFLGHKLLWGSPT | -0.414 ± 0.76
WNNYVLGYEVNRMCLLDRSV | inactive
WQIGPCYNVLRFLKWFWSLR | -0.637 ± 1.1
WRAIVPSGK | 0.067 ± 0.63
WRCGVVFRDEYCYRGNRTFK | -0.675 ± 0.26
WRCSSISCDCDARLGRMRVS | 0.697 ± 0.42
WRHSVVMYNWKIGHCVGDYW | 0.718 ± 0.18
WRVATCCAGRTIIQLETRFG | 8.805 ± 0.058
WRYYAGWYESWSTAGQTCTF | -0.487 ± 1.1
WSCCKFLDCHITVCDFLVWA | 7.587 ± 0.047
WSQRMLRSQEVPCSWWEIVT | 0.905 ± 0.13
WSRQHDSLMVLWGCRGYY | 0.148 ± 0.5
WSRSLKDGALESYSSVRLLC | 0.1 ± 0.28
WSRTVYGIFCKIG | 0.208 ± 0.65
WSTSFYLLIFTPRVCCMDFF | 5.619 ± 0.034
WSVGVESSKDQSLDQFGSD | -0.184 ± 1.1
WSWLRICIS | 0.549 ± 0.32
WSWLSFYLSGMAFLVRYKSG | -0.344 ± 0.56
WSWSLGNYYAHNVDCYSVGC | -0.266 ± 0.41
WTTIEFRIKGNFM | 1.59 ± 0.19
WTWEKWESPHEDGSRRPIVG | 1.55 ± 0.18
WTWFESVLRPCKGLGRAPHI | -0.172 ± 0.8

Substance | amyloid nucleation score
WTYRCPALLFYQFYAKGYA | -0.594 ± 0.63
WVAFANFVHGLMTLGHWGSR | 1.28 ± 0.27
WVELVCPYSTYLLSFIASLS | 0.278 ± 0.54
WVFGLCSIPLHCVLHGIMMG | 2.92 ± 0.16
WVFNNELCNDYEHWLWARFD | -0.295 ± 0.56
WVGGYIQLFYVTRPQVSGRP | 3.17 ± 0.061
WVLYGASLCYPWVTSSKLRA | 0.589 ± 0.42
WVMAISLADFVLYLNWSLYR | inactive
WVMAVVDHVLSWFYWRLCLF | 3.26 ± 0.058
WVTSDRYKRALARKSHEQRN | 0.423 ± 0.24
WVYFHSNNSDLLDNEIKLTR | 0.652 ± 0.66
WVYNLALCNSRVIKG | -0.51 ± 0.48
WWLKALPRVILARLVSRGQG | 0.458 ± 0.29
WWTAQGCTELTVS | 0.855 ± 0.27
WYISARPYVFCYDMQRSLRL | -0.505 ± 1.1
WYMLLRESPGSCPVGDEQGR | 0.923 ± 0.81
WYRLLGFAMD | -0.603 ± 1.1
WYSSSIGHKMWVTYGSLWGQ | 0.505 ± 0.54
WYVYSQ | 3.25 ± 0.052
